According to US20130095503A1, “SERUM SPLA2-IIA AS DIAGNOSIS MARKER FOR PROSTATE AND LUNG CANCER” (UNIVERSITY OF CINCINNATI, priority 2010, published 2013):

Legend:
HER2 [1] = target: T1, HER2 (Homo sapiens, UniProt P04626); experiment: Western blot of P-HER2 in lung cancer cells treated with sPLA2-IIA; type: cell-based; parameters: endogenous in cells; host or cells: A549 lung cancer cells; conditions: A549 and H1975 cells (FIG. 22A: A549), 0-0.5 μg/mL, 2 H, 10% FBS
Protocol: (§1) A549 and H1975 lung cancer cells were starved in 1% stripped medium for 24 H. The cells were then treated with recombinant human sPLA2-IIA (0.5 μg/mL) with various concentrations (0, 0.125, 0.25, or 0.5 μg/mL) of sPLA2-IIA for 2 H in medium containing 10% fetal bovine serum (hereinafter “FBS”). Cell extracts were prepared and subjected to western blot analysis for HER2, P-HER2, HER3, and P-HER3. Western blot analysis was conducted as previously described.

HER3 = target: T2, HER3 (Homo sapiens, UniProt P21860); experiment: Western blot of P-HER3 in lung cancer cells treated with sPLA2-IIA; type: cell-based; conditions: A549 and H1975 cells (FIG. 22B: H1975), 0-0.5 μg/mL, 2 H, 10% FBS
T2 construct: endogenous in cells; host or cells: H1975 lung cancer cells
Protocol: as §1

HER2 [2] = target: T1, HER2; experiment: Western blot of P-HER2 in LNCaP-AI prostate cancer cells treated with sPLA2-IIA; type: cell-based; parameters: endogenous in cells; conditions: 0.5 μg/mL for 0-180 min or 0-0.5 μg/mL for 2 H, FIG. 23
Protocol: Additionally, LNCaP-AI prostate cancer cells were starved in 1% stripped medium for 24 H. The cells were then treated with recombinant human sPLA2-IIA (0.5 μg/mL) for 30 to 180 minutes (0, 30, 60, 120, or 180 min) or with various concentrations of sPLA2-IIA (0, 0.125, 0.25, or 0.5 μg/mL) for 2 H in medium containing 10% FBS. Cell extracts were prepared and subjected to western blot analysis for P-HER2 and HER2. Western blot analysis was conducted as previously described.

LNCaP-AI cells = experiment: MTT growth assay in LNCaP-AI cells; type: cell-based, human; conditions: 10% stripped medium, about 4 days, FIG. 11
Protocol: The role of sPLA2-IIA in the growth of prostate cancer cells was studied by MTT assay. Specifically, LNCaP-AI cells were cultured in 10% stripped medium in the presence of EGF (ng/mL) or sPLA2-IIA (ng/mL) for about 4 days, followed by performance of an MTT assay. The role of sPLA2-IIA on prostate cancer cell growth was also studied by blocking the activity of sPLA2-IIA in LNCaP-AI cells. The activity of sPLA2-IIA was blocked in LNCaP-AI cells by administering the peptide inhibitor cFLYSYR (μM) or c(NapA)R (μM) for about 4 days, followed by performance of an MTT assay.

T2 sequence (P21860 20-1342): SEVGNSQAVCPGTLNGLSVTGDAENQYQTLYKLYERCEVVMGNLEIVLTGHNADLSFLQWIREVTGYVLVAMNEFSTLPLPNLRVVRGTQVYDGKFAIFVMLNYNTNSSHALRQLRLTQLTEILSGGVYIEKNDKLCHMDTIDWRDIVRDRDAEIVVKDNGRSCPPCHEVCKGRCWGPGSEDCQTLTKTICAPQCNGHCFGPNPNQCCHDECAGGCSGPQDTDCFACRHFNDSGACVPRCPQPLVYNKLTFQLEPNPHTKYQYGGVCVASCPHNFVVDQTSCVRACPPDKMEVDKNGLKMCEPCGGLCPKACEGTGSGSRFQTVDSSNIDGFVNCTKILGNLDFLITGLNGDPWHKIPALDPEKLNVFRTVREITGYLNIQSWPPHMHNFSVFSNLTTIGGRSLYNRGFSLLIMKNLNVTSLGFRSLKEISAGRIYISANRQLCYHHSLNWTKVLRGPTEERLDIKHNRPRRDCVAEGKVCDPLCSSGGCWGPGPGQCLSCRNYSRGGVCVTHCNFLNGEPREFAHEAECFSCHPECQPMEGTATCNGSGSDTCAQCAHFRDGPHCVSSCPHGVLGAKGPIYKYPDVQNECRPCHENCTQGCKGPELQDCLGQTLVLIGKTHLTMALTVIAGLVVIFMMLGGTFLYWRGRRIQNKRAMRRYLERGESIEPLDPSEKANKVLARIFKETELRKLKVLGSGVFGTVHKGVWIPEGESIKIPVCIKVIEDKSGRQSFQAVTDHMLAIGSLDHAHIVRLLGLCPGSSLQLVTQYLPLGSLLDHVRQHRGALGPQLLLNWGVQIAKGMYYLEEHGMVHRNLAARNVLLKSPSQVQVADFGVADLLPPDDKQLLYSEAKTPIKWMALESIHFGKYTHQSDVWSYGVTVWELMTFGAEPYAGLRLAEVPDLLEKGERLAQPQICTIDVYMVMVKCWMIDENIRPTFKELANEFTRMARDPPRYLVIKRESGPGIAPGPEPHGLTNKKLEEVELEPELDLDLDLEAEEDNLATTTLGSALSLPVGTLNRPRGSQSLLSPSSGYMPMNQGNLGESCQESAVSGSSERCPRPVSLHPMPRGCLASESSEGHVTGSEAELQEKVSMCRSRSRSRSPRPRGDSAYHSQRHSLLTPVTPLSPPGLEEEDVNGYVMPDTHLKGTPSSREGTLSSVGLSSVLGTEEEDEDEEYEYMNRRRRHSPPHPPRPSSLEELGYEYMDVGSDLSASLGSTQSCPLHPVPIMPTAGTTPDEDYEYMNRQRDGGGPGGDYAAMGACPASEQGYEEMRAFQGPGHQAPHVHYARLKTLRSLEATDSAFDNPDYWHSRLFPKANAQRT

phosphorylation of HER2 (HER2 [1]): induced phosphorylation
phosphorylation of HER3 (HER3): induced phosphorylation
phosphorylation of HER2 (HER2 [2]): induced phosphorylation
B1: recombinant human sPLA2-IIA: recombinant human secretory phospholipase A2-IIA (protein, UniProt P14555 21-144, looked up)
Phospholipase A2, membrane …: NLVNFHRMIKLTTGKEAALSYGFYGCHCGVGGRGSPKDATDRCCVTHDCCYKRLEKRGCGTKFLSYKFSNSGSRITCAKQDSCRSQLCECDKAAATCFARNKTTYNKKYQYYSNKHCRGSTPRC
prostate cancer cell growth (MTT) (LNCaP-AI cells): stimulates prostate cancer cell growth
